From patent US12344663B2, “Anti-C3 antibodies and antigen-binding fragments thereof and their uses for treating eye or ocular diseases” (CDR-Life AG, priority 2021, dated 2025)

Legend:
Classical Pathway (CP) = assay: Hemolytic assay, antibody-sensitized sheep erythrocytes in human serum; assay type: cell-based; conditions: 1% human serum, read-out: IC50 (nM) Classical Pathway Hemolysis
Method: Anti-C3 antibody fragments are evaluated for their ability to inhibit hemolysis of antibody-sensitized sheep erythrocytes mediated by Classical Pathway (CP) or Alternative Pathway (AP) activation in human serum. For this, sheep erythrocytes are coated with hemolysin (rabbit anti-sheep antibodies) on the surface to activate the complement system in human serum resulting in C3 activation and subsequent formation of the Membrane Attack Complex (MAC). The MAC assembles on the membrane of sheep erythrocytes leading to cell lysis. The level of hemoglobin released from lysed erythrocytes is measured at OD 414 nm and is proportional to the complement activity present in the serum sample. For determining the ability of anti-C3 molecules to inhibit CP activity, human serum was diluted in GVB++ buffer (Complement technology) for optimal activation of the Classical Pathway (requires calcium and magnesium ions). Serial dilutions of anti-C3 test samples are prepared from this solution with a final concentration of 1% human serum for each datapoint (prior to addition to erythrocytes). The samples are incubated with antibody-sensitized sheep erythrocytes for 1 hour at 37° C. and released hemoglobin is measured in the supernatant after a centrifugation step.

[1] = Viscosity at high concentrations, cone-plate-rheometer; assay type: physicochemical; conditions: 20° C., shear-rate 1000 s^−1; for Viscosity [mPa * s] Fully formulated at 150 g/L: 10 mM His pH 5.5, 275 mM sucrose, 0.02% w/v Polysorbate20; for Viscosity [mPa * s] Minimal buffer at 185 g/L: 10 mM His pH 5.5
Method: Viscosity measurements are performed with the samples prepared for the storage stability study. In addition to the fully formulated samples (10 mM His pH 5.5, 275 mM sucrose, 0.02% w/v Polysorbate20), viscosity of each candidate is also measured in a minimal formulation (10 mM histidine pH 5.5). This is performed to evaluate the drug substance processability (e.g., filtration, pumping, diafiltration, etc.) of the candidates up to 125% of the final drug product concentration of 150 mg/ml.
Viscosity is measured at 20° C. at a shear-rate of 1000 s^−1 using a cone-plate-rheometer. Briefly, a stepwise increase of the shear rate up to 1,000 s^−1 is done collecting 100 data points, followed by a further increase of the shear rate up to 2000 s^−1, collecting another 10 data points. Finally, a stepwise decrease of the shear rate down to starting rate is done. Good drug product handling properties for filling and syringeability have been observed for all candidates

[2] = Storage stability at 150 mg/ml, oligomerization by SE-HPLC; assay type: physicochemical; conditions: decrease in monomeric content versus start
Method: Clone I, clone II and clone III are tested for storage stability. Samples are concentrated to 150 mg/ml (Vivaspin20 centrifugal device, 5 kDa MWCO at 3800×g) and stored at 25° C. and 40° C. for up to 4 weeks. Samples are analyzed for oligomerization (SE-HPLC) and chemical degradation (IEX-HPLC). The starting monomeric purity as determined by SE-HPLC was 99.96% for each clone. The starting charge purity, as determined by IEX-HPLC was 98.07%, 97.16% and 96.76%, respectively for clone I, II and III.

Alternative Pathway (AP) = assay: Hemolytic assay, rabbit erythrocytes in human serum; assay type: cell-based; conditions: MgEGTA, read-out: IC50 (nM) Alternative Pathway Hemolysis
Excerpt: The Alternative Pathway (AP) in human serum samples is spontaneously activated by rabbit erythrocytes. Since AP activation requires higher concentrations of serum, the Classical Pathway needs to be blocked with MgEGTA to chelate Ca2+ ions (AP only requires Mg2+ ions). AP activation results in C3 activation and subsequent formation of the Membrane Attack Complex (MAC). The MAC assembles on the membrane of rabbit erythrocytes leading to cell lysis. The level of hemoglobin released from lysed erythrocytes is measured at OD 414 nm and is proportional to the complement activity present in the serum sample.

[3] = In vitro BrM permeation assay, Ussing chamber; assay type: in vitro ADME, porcine; conditions: 0.1 mg/ml, up to 72 h, in words
Method: Porcine Bruch's membrane samples are used for this measurement. Porcine eyes are collected from the slaughterhouse) no more than 6 hours after the animals were sacrificed and stored at 4° C. until use (on same day).
Preparation of enriched Bruch's Membrane (BrM): The eyes are placed into a disposable petri-dish and any residual tissue surrounding the eyeball is removed. The eyeball is incised next to the iris with a scalpel and the front part of the eye as well as lens, vitreous and retinal tissue are removed from the eyecup. […]
Sampling and membrane integrity analysis: For sampling at different timepoints (4 h, 24 h, 48 h and 72 h) the solution in the single compartments is mixed by carefully pipetting up and down and 90 μl were transferred separately from each sample and diffusate chamber to collection tubes. […] Accumulation of blue particles in the second compartment is observed and camera pictures are recorded to control for overall membrane integrity.
Sample analysis: 15 μl of each solution from the sample and diffusate chambers are effectively loaded on 2 precast polyacrylamide gels (NuPAGE Bis-Tris gels) together with a similar amount of stored mastermix as loading control. The first gel is analyzed by standard SDS-PAGE and Coomassie-based staining methods for protein detection (anti-C3 scFv). […]
Evaluation: Pictures of the SDS-gels are analyzed using ImageJ2 software (Fiji). […]

Molecule	IC50 (Classical Pathway (CP)) [nM]	Viscosity [mPa * s] Fully formulated at 150 g/L [1] [mPa * s]	Viscosity [mPa * s] Minimal buffer at 185 g/L [1] [mPa * s]	Storage stability, SEC 4 weeks at 25° C. [D %] [2] [D %]	Storage stability, SEC 4 weeks at 40° C. [D %] [2] [D %]	IC50 (Alternative Pathway (AP)) [nM]	Diffusion/penetration through porcine Bruch's membrane [3]
Clone I: humanized anti-C3 scFv, VH SEQ ID NO: 20, VL SEQ ID NO: 21; scFv SEQ ID NO: 26 or 27 (antibody, V domains shown, VH; VL) VH: QVQLVESGGGSVQPGRSLRLSCAASGFTFSNYAMNWVRQAPGKGLEWVAVISYDGSNKYYADSVKGRFTISRDNSKNTLYLQMNSLRAEDTASYYCARAVGYHHARLDPWGCGTSVTVSS VL: QLVLTQSPSASASLGASVKLTCTLSSAHKTYTIDWYQQQPEKCPRYLMQLKSDGSYTKGSGIPDRFSGSSSGAERYLTISSLQSEDEADYYCGTEGVGGYVFGGGTKLTVLG	74	3.9	5.4	0.06	0.37	705	superior diffusion ability
Clone II: humanized anti-C3 scFv, VH SEQ ID NO: 22, VL SEQ ID NO: 23; scFv SEQ ID NO: 28 or 29 (antibody, V domains shown, VH; VL) VH: QVQLVESGGGSVQPGRSLRLSCAASGFTFSNYAMNWVRQAPGKGLEWVAIINVGGGTNYADSVKGRFTISRDNSKNTLYLQMNSLRAEDTASYYCARAVGYHHARLDPWGCGTSVTVSS VL: QLVLTQSPSASASLGASVKLTCTLSSAHKTYTIDWYQQQPEKCPRYLMQLKSDGSYTKGSGIPDRFSGSSSGAERYLTISSLQSEDEADYYCGTEGVGGYVFGGGTKLTVLG	69	3.9	4.5	0.11	1.59	668	
